Drawing on paper PMC5241339, “Insights into binding of S100 proteins to scavenger receptors: class B scavenger receptor CD36 binds S100A12 with high affinity” (Amino Acids, 2016), this text covers Kd for one molecule.

This assay concerns the target T1, CD36 (His-tagged recombinant human protein, Sino Biological, Life technologies, 70-80 kDa) (human, UniProt P16671 30-439).
T1 construct: CD36, class B scavenger receptor, human, recombinant; also called Human recombinant CD36
Kind of assay: SPR; Biacore T100; CD36 immobilized by amine coupling on a C1 chip (1000 RU); S100A12 species as analyte 0.62-50.0 nM, single cycle kinetics, 30 µL/min, 25 °C; HBS-P+ with 350 µM CaCl2; two-state reaction model. The settings on record: both partners purified. On the technique in general: SPR reads the build-up and loss of mass on a sensor chip optically.

Several values for one entry are separate records, joined by “and”; a condition that tells them apart may be missing. Identical values can stand only once.

T1 sequence (P16671 30-439): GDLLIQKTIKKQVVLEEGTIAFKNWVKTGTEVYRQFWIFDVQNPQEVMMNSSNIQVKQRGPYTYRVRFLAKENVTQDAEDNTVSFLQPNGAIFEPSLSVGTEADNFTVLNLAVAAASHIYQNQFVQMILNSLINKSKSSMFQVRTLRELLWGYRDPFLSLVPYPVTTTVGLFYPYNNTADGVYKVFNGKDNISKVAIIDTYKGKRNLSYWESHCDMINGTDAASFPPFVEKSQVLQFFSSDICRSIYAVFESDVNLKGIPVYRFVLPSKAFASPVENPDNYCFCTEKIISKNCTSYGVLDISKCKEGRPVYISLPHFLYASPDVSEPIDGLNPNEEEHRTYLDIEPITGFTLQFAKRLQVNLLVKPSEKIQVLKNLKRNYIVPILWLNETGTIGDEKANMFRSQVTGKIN

B1: commercially available native human S100A12 protein (nS100A12) (natural protein, UniProt P80511 1-92, looked up)
chain: MTKLEEHLEGIVNIFHQYSVRKGHFDTLSKGELKQLLTKELANTIKNIKDKAVIDEIFQGLDANQDEQVDFQEFISLVAIALKAAHYHTHKE
notes: S100A12, human, untagged; Called 'native' in the methods and 'untagged recombinant' in the results; also called human, untagged recombinant nS100A12
Usually Kd stands for the constant that tells how readily two partners part at equilibrium. As to B1, the Kd is 1.04 nM and 0.9 nM.
